# In patent US20210115144A1 (Dana-Farber, published 2021):
# T1: human HHLA2 expressed on transfected cells (300.19 mouse pre-B cells; CHO cells) (human, UniProt Q9UM44 23-414)
# T1 construct: also called B7-H7; B7H7
# T1 sequence: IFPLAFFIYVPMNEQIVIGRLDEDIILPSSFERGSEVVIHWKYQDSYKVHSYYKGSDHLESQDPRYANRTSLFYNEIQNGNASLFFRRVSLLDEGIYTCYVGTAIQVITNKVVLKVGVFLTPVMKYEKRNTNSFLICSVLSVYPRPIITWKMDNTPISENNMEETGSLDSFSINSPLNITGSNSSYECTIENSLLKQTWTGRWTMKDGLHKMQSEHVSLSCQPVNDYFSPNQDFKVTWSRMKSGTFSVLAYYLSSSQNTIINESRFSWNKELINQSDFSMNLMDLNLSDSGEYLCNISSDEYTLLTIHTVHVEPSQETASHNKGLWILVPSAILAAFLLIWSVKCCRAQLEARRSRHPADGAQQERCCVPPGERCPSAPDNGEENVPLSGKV
# T2: human HHLA2-mIgG2a fusion protein (human; mouse, UniProt Q9UM44 23-344, limits assumed)
# T2 construct: also called hHHLA2-mIgG2a; HHLA2-Fc
# T2 sequence: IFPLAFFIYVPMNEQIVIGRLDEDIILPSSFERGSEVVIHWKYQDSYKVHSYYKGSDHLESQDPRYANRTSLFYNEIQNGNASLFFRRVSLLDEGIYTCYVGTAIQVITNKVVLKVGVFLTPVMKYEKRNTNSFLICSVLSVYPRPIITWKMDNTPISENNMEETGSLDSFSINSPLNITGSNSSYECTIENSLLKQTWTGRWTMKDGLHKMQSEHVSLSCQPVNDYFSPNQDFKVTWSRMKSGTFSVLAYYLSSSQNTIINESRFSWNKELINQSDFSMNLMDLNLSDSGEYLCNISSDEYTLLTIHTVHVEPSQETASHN
# B1: anti-HHLA2 monoclonal antibody 6D10 (antibody, IgG1, V domains shown)
# VH: EVQLVETGGGLVQPKGSLKLSCAASGFTFNTNVMNWVRQAPGKGLEWVARIRTKTNNYATYYADSVKDRFTIFRDDSQSILYLQMNNLKTEDTAMYYCVGAMDYWGQGTSVTVSS
# VL: DIVLTQSPASLAVSLGQRATISCRASESVDNYGISFMHWYQQKPGQPPKLLIYRASNLKSGIPARFSGSGSRTDFTLTINPVETGDVATYYCQQSSKDPPTFGTGTKLELK
# notes: also called 6DI0; 499.5.6D10.11.11.7
# B2: anti-HHLA2 monoclonal antibody 1C8 (antibody, IgG2a, V domains shown)
# VH: EVQLQQSGAELVQPGASVKLSCTASGFNIKDTYMHWVKQRPEQGLEWIGRIDPANGKTIFDPKFQVKATITADTSSNTVYLHLSSLTSEDTAIYYCAWLLPYYFDYWGQGTTLTVSS
# VL: EIVLTQSPAVMAASPGEKVTITCSVSSSISSSNLHWYQQKSGTSPKLWIYGTSNLASGVPVRFSGSGSGTSYSLTISSMEAEDAATYYCQKWSHYPLTFGAGTKLELK
# notes: also called 499.5.1C8.9.12.2; MHC2564
# B3: anti-HHLA2 monoclonal antibody 2C4 (antibody, IgG1, V domains shown)
# VH: EVHLQQSGPELEKPGVSVKISCKASGFSFTDYNMNWVKQSSGKSLEWIGNIDPYYGRINYNQKFKGKATLSVDKSSSTAYMHLKSLTSEDSAVYYCATGAYTSGYSWFAYWGQGTLVTVSA
# VL: ENVLTQSPGIMAASLGEKVTMTCSASSSVSSSYLHWYQQRSGASPKPLIHRTSNLASGVPARFSGSGSGTSYSLTISSVEAEDDATYYCQQWSGYPFTFGSGTKLEIK
# notes: also called 499.5.2C4.E6.6.8.1; MHC2562
# B4: anti-HHLA2 monoclonal antibody 2G2 (antibody, IgG1, V domains shown)
# VH: EVMLVESGGGLVKPGGSLKLSCAVSGLTFSSYAMSWVRQTPEKRLEWVATISSGGSHTYYPDSVKGRFIISRDNAKNTLYLQMNSLRSEDTAMYYCTRLGRAFDYWGQGTTLTVSS
# VL: DIVMTQSHKFMSTSVGDRVSITCKASQDVSTAVAWYQQKPGQSPKVLIYWASTRHTGVPDRFTGSGSGTDFTLTISSVQAEDLALYYCQQDYSTPWTFGGGTKLEIK
# notes: also called 499.5.2G2.13.3.10; MHC2561
# B5: anti-HHLA2 monoclonal antibody 4D1 (antibody, IgG1, V domains shown)
# VH: QVQLQQSGAELVRPGVSVKISCKGSGYTFTDYAMHWVKQSHAKSLEWIGSISTYYGDTNYNQKFKGKATMTVDKSSSTAYMELARLTSEDSAIYYCARGNYDDWYFNVWGAGTTVTVSS
# VL: DIQMTQSPSSLSASLGERVSLTCRASQDISGYLSWLQQKPDGTIKRLIYSTSTLDSGVPKRFSGSRSGSDYSLTISSLESEDFADYYCLQYASSPYTFGGGAKLEIK
# notes: also called 499.5.4D1.5.16; MHC2563
# B6: KIR2DS5 (receptor, human, UniProt Q14953 22-304, looked up)
# chain: HEGFRRKPSLLAHPGPLVKSEETVILQCWSDVMFEHFLLHREGTFNHTLRLIGEHIDGVSKGNFSIGRMTQDLAGTYRCYGSVTHSPYQLSAPSDPLDIVITGLYEKPSLSAQPGPTVLAGESVTLSCSSRSSYDMYHLSREGEAHERRLPAGPKVNRTFQADFPLDPATHGGTYRCFGSFRDSPYEWSKSSDPLLVSVTGNSSNSWPSPTEPSSETGNPRHLHVLIGTSVVKLPFTILLFFLLHRWCSNKKNASVMDQGPAGNRTVNREDSDEQDHQEVSYA
# notes: whole, on cells
# B7: KIR2DL3 (receptor, human, UniProt P43628 22-341, looked up)
# chain: HEGVHRKPSLLAHPGPLVKSEETVILQCWSDVRFQHFLLHREGKFKDTLHLIGEHHDGVSKANFSIGPMMQDLAGTYRCYGSVTHSPYQLSAPSDPLDIVITGLYEKPSLSAQPGPTVLAGESVTLSCSSRSSYDMYHLSREGEAHERRFSAGPKVNGTFQADFPLGPATHGGTYRCFGSFRDSPYEWSNSSDPLLVSVTGNPSNSWPSPTEPSSETGNPRHLHVLIGTSVVIILFILLLFFLLHRWCCNKKNAVVMDQEPAGNRTVNREDSDEQDPQEVTYAQLNHCVFTQRKITRPSQRPKTPPTDIIVYTELPNAEP
# notes: whole, on cells
# B8: KIR2DS1 (receptor, human, UniProt Q14954 22-304, looked up)
# chain: HEGVHRKPSLLAHPGRLVKSEETVILQCWSDVMFEHFLLHREGMFNDTLRLIGEHHDGVSKANFSISRMKQDLAGTYRCYGSVTHSPYQLSAPSDPLDIVIIGLYEKPSLSAQPGPTVLAGENVTLSCSSRSSYDMYHLSREGEAHERRLPAGTKVNGTFQANFPLGPATHGGTYRCFGSFRDSPYEWSKSSDPLLVSVTGNPSNSWPSPTEPSSETGNPRHLHVLIGTSVVKIPFTILLFFLLHRWCSDKKNAAVMDQEPAGNRTVNSEDSDEQDHQEVSYA
# notes: whole, on cells
# B9: KIR2DS2 (receptor, human, UniProt P43631 22-304, looked up)
# chain: HEGVHRKPSLLAHPGPLVKSEETVILQCWSDVRFEHFLLHREGKYKDTLHLIGEHHDGVSKANFSIGPMMQDLAGTYRCYGSVTHSPYQLSAPSDPLDIVITGLYEKPSLSAQPGPTVLAGESVTLSCSSRSSYDMYHLSREGEAHERRFSAGPKVNGTFQADFPLGPATHGGTYRCFGSFRDSPYEWSNSSDPLLVSVTGNPSNSWPSPTEPSSKTGNPRHLHVLIGTSVVKIPFTILLFFLLHRWCSNKKNAAVMDQEPAGNRTVNSEDSDEQDHQEVSYA
# notes: whole, on cells
# B10: KIR2DS3 (receptor, human, UniProt Q14952 22-304, looked up)
# chain: HEGFRRKPSLLAHPGRLVKSEETVILQCWSDVMFEHFLLHREGTFNDTLRLIGEHIDGVSKANFSIGRMRQDLAGTYRCYGSVPHSPYQFSAPSDPLDIVITGLYEKPSLSAQPGPTVLAGESVTLSCSSWSSYDMYHLSTEGEAHERRFSAGPKVNGTFQADFPLGPATQGGTYRCFGSFHDSPYEWSKSSDPLLVSVTGNPSNSWPSPTEPSSKTGNPRHLHVLIGTSVVKLPFTILLFFLLHRWCSDKKNASVMDQGPAGNRTVNREDSDEQDHQEVSYA
# notes: whole, on cells
# Target: T1, human HHLA2 expressed on transfected …
# Experiment: flow cytometry, mAb on HHLA2-transfected 300.19 mouse pre-B cells
row,Binder,EC50
1,B1,22.5 µg/mL
2,B2,0.63 µg/mL
3,B3,0.24 µg/mL
4,B4,0.21 µg/mL
5,B5,0.44 µg/mL

# Target: T1, human HHLA2 expressed on transfected …
# Experiment: flow cytometry, mAb titrated on human HHLA2-transfected 300.19 pre-B cells
# Description: (§1) Binding of different HHLA2 mAbs to human and cynomolgus monkey HHLA2 was also tested and EC50 binding analysis was conducted (FIGS. 13A and 13B). […] HHLA2 mAb binding to transfected 300.19 cells was detected with PE-labeled goat anti-mouse IgG (H+L). EC50 analysis was conducted using Graph Pad Prism.
row,Binder,EC50
1,B3,0.29 µg/mL

# Target: T3, cynomolgus monkey HHLA2 expressed on transfected 300.19 pre-B cells (cynomolgus monkey)
# T3 construct: whole, on cells
# Experiment: flow cytometry, mAb titrated on cynomolgus monkey HHLA2-transfected 300.19 pre-B cells
# Description: FIGS. 13A and 13B show HHLA2 mAb binding to human and cynomolgus monkey HHLA2. […] HHLA2 mAb binding to transfected 300.19 cells was detected with a PE-labeled goat anti-mouse IgG (H+L) by flow cytometry.
# as §1
row,Binder,EC50
1,B3,0.47 µg/mL

# Target: T1, human HHLA2 expressed on transfected …
# Experiment: flow cytometry, mAb titrated on HHLA2-transfected 300.19 pre-B cells, PE goat anti-mouse IgG
# Description: (§2) HHLA2 mAb cell binding and receptor blockade experiments were then performed. […] HHLA2 mAb binding to transfected 300.19 cells was detected with PE-labeled goat anti-mouse IgG (H+L). For HHLA2 mAb blocking experiments different concentration of HHLA2 mAbs were pre-incubated with 4 ug/ml of HHLA2-mIgG2a at a 1:1 ratio for 30 minutes and added to either TMIGD2 or KIR3DL3 transfected 293T cells and incubated for 30 minutes at 4° C. HHLA2-mIgG2a binding to TMIGD2 or KIR3DL3 transfected 293T cells was detected with a PE labeled Fab2 goat anti-mIgG2a antibody. EC50 and IC50 analyses were conducted using Graph Pad Prism. It was shown that HHLA2 mAb clone 2C4 has desired properties of complete KIR3DL3 blockade and partial TMIGD2 blockade (Table 6).
row,Binder,EC50
1,B1,22.5 µg/mL
2,B2,0.63 µg/mL
3,B3,0.24 µg/mL
4,B4,0.21 µg/mL
5,B5,0.44 µg/mL

# Target: T1, human HHLA2 expressed on transfected …
# Experiment: as above
# Remark: another data set of the same source
# Description: as §1
row,Binder,EC50
1,B3,0.29 µg/mL

# Target: T2, human HHLA2-mIgG2a fusion protein
# Experiment: cell microarray, HHLA2-mIgG2a on fixed transfected HEK293 cells, AF647 anti-mouse IgG detection
# Description: Human HHLA2-mIgG2a fusion protein was added to slides of fixed, transfected HEK293 cell slides at a 20 ug/ml concentration, and the protein was detected with an AF647 labeled anti-mouse IgG detection antibody. Two replicate slides were screened for each of the 13 slide sets. Fluorescent images were analyzed and quantitated (for transfection efficiency) using ImageQuant software (GE). A protein ‘hit’ was defined as duplicate spots showing a raised signal compared to background levels. This was achieved by visual inspection using the images gridded on the ImageQuant software.
# Addition of the AF647 labeled anti-mouse IgG detection antibody alone in the absence of HHLA2-mIgG2a produced no signal. The selectivity of HHLA2 binding to KIR3DL3 was evaluated using a panel of 14 KIR receptors arrayed on slides.
row,Binder,binding result
1,B6,no binding (tested: 20 ug/ml)
2,B7,no binding (tested: 20 ug/ml)
3,B8,no binding (tested: 20 ug/ml)
4,B9,no binding (tested: 20 ug/ml)
5,B10,no binding (tested: 20 ug/ml)

# Target: T2, human HHLA2-mIgG2a fusion protein
# Experiment: flow cytometry, mAb pre-incubated with 4 ug/ml HHLA2-mIgG2a; blockade of its binding to TMIGD2-transfected 293T cells
# Description: as §2
row,Binder,IC50
1,B1,11.7 µg/mL
2,B2,1.65 µg/mL
3,B3,28.2 µg/mL
4,B4,0.85 µg/mL
5,B5,0.56 µg/mL

# Target: T2, human HHLA2-mIgG2a fusion protein
# Experiment: flow cytometry, mAb pre-incubated with 4 ug/ml HHLA2-mIgG2a; blockade of its binding to KIR3DL3-transfected 293T cells
# Description: as §2
row,Binder,IC50
1,B1,7 µg/mL
2,B2,1.15 µg/mL
3,B3,0.52 µg/mL
4,B4,0.53 µg/mL
5,B5,0.68 µg/mL

# Target: T2, human HHLA2-mIgG2a fusion protein
# Experiment: flow cytometry, mAb pre-incubated with 4 ug/ml HHLA2-mIgG2a; blockade of its binding to TMIGD2-transfected 300.19 pre-B cells
# Description: (§3) HHLA2 mAb binding to transfected 300.19 cells was detected with PE-labeled goat anti-mouse IgG (H+L). […] EC50 and IC50 analyses were conducted using Graph Pad Prism. It was shown that HHLA2 mAb clone 2C4 has desired properties of complete KIR3DL3 blockade and partial TMIGD2 blockade (Table 7).
row,Binder,IC50
1,B3,7.3 µg/mL

# Target: T2, human HHLA2-mIgG2a fusion protein
# Experiment: flow cytometry, mAb pre-incubated with 4 ug/ml HHLA2-mIgG2a; blockade of its binding to KIR3DL3-transfected 300.19 pre-B cells
# Description: as §3
row,Binder,IC50
1,B3,0.97 µg/mL
